{
  "source": "the DeepSol protein solubility set",
  "data": [
    {"assay": "soluble on expression in E. coli; label from the status in PepcDB or PDB records", "values": [
      {"sequence": "MKLCFNEATTLENSNLKLDLELCEKHGYDYIEIRTMDKLPEYLKDHSLDDLAEYFQTHHIKPLALNALVFFNNRDEKGHNEIITEFKGMMETCKTLGVKYVVAVPLVTEQKIVKEEIKKSSVDVLTELSDIAEPYGVKIALEFVGHPQCTVNTFEQAYEIVNTVNRDNVGLVLDSFHFHAMGSNIESLKQADGKKIFIYHIDDTEDFPIGFLTDEDRVWPGQGAIDLDAHLSALKEIGFSDVVSVELFRPEYYKLTAEEAIQTAKKTTVDVVSKYFSMLEHHHHHH", "soluble on expression in E. coli": "soluble"},
      {"sequence": "MKLIKNAEFGGERPLFESHDLRLENVIIRTGESAIKECSNIETVDCRFEGNYPFWHVHGFKIDRCYFDVGGRSALWYSDHLKMTDTIIDAPKMFREMDEIDIENVTMNDADEVFWRCNGIRIKNLKLHGGTYPFMFSNNIYVDGLESNSKYVFQYVKNVEIHHAKITTKDAFWEVENVTIYDSELNGEYLGWHSKNLRLVNCHITGEQPLCYAHDLILENCTFGPDCDRTFEYSTLQADIHGAITNIKNPMSGCIVADEFGSITIDENIKAPADCEIRLRDERTCFTD", "soluble on expression in E. coli": "soluble"},
      {"sequence": "MKLIKNGKVLQNGELQQADILIDGKVIKQIAPAIEPSNGVDIIDAKGHFVSPGFVDVHVHLREPGGEYKETIETGTKAAARGGFTTVCPMPNTRPVPDSVEHFEALQKLIDDNAQVRVLPYASITTRQLGKELVDFPALVKEGAFAFTDDGVGVQTASMMYEGMIEAAKVNKAIVAHCEDNSLIYGGAMHEGKRSKELGIPGIPNICESVQIARDVLLAEAAGCHYHVCHVSTKESVRVIRDAKRAGIHVTAEVTPHHLLLTEDDIPGNNAIYKMNPPLRSTEDREALLEGLLDGTIDCIATDHAPHARDEKAQPMEKAPFGIVGSETAFPLLYTHFVKNGDWTLQQLVDYLTIKPCETFNLEYGTLKENGYADLTIIDLDSEQEIKGEDFLSKADNTPFIGYKVYGNPILTMVEGEVKFEGDK", "soluble on expression in E. coli": "not soluble"},
      {"sequence": "MKLIRKYHMIPYENGSEYESAKRFLENILSASDVDPTTKCRFYQDVLYRIRNHPELPIVTEELFDVIQENLQQQNDNQKRNVKLERRNLKYEVIPEKRESYQEKYYESPPVYKAENEQLFDDVTYHNDGINHLKPRKNVYIKEEPEDEDYHMEYEKIPEINMEQNVNELFMEPQKHAPGKIKKSKKQKKDGTLSRPLGKKEKKSVQYATSNKRQKFDLKRGKSMNNVKPRKLYKLQLDEEDEDEEPMVDETPQNTEISIKKRPFQQDSTKNLNKRQKFDLKRRKNMSRVRPNKIYKMQNLKRNISSTIPDNGTNIPAAKRRVLHGSGSAPPPGSRVYCRLWKF", "soluble on expression in E. coli": "not soluble"},
      {"sequence": "MKLMDVHVLFSGGKDSSLSAVILKKLGYNPHLITINFGVIPSYKLAEETAKILGFKHKVITLDRKIVEKAADMIIEHKYPGPAIQYVHKTVLEILADEYSILADGTRRDDRVPKLSYSEIQSLEMRKNIQYITPLMGFGYKTLRHLASEFFILEEIKSGT", "soluble on expression in E. coli": "not soluble"},
      {"sequence": "MKLNLEREKKILLKNRNRYRYFHKPGVSIIVCTNKMKYIENIFSNYSRINYPIKEMIIILNKMNLNISKYKKVAERFSNVRIIKKPENVTLGKCLNYGVDISKYNYIFKMDDDDYYGENYICDEITSLIYTNSDIVGKASFFVYYEGYGRLEIMYPEGNEKYIPNVAGSTLLIKKSVFNKVRFRNISLAEDACFIEDCCKQGIKIYSCNRFNYVYFKHRSLNDHTWKISSEDLMKVTKKVGKYKNYLPIVTILEHHHHHH", "soluble on expression in E. coli": "not soluble"},
      {"sequence": "MKLNVDGLLVYFPYDYIYPEQFSYMRELKRTLDAKGHGVLEMPSGTGKTVSLLALIMAYQRAYPLEVTKLIYCSRTVPEIEKVIEELRKLLNFYEKQEGEKLPFLGLALSSRKNLCIHPEVTPLRFGKDVDGKCHSLTASYVRAQYQHDTSLPHCRFYEEFDAHGREVPLPAGIYNLDDLKALGRRQGWCPYFLARYSILHANVVVYSYHYLLDPKIADLVSKELARKAVVVFDEAHNIDNVCIDSMSVNLTRRTLDRCQGNLETLQKTVLRIKETDEQRLRDEYRRLVEGLREASAARETDAHLANPVLPDEVLQEAVPGSIRTAEHFLGFLRRLLEYVKWRLRVQHVVQESPPAFLSGLAQRVCIQRKPLRFCAERLRSLLHTLEITDLADFSPLTLLANFATLVSTYAKGFTIIIEPFDDRTPTIANPILHFSCMDASLAIKPVFERFQSVIITSGTLSPLDIYPKILDFHPVTMATFTMTLARVCLCPMIIGRGNDQVAISSKFETREDIAVIRNYGNLLLEMSAVVPDGIVAFFTSYQYMESTVASWYEQGILENIQRNKLLFIETQDGAETSVALEKYQEACENGRGAILLSVARGKVSEGIDFVHHYGRAVIMFGVPYVYTQSRILKARLEYLRDQFQIRENDFLTFDAMRHAAQCVGRAIRGKTDYGLMVFADKRFARGDKRGKLPRWIQEHLTDANLNLTVDEGVQVAKYFLRQMAQPFHREDQLGLSLLSLEQLESEETLKRIEQIAQQL", "soluble on expression in E. coli": "not soluble"},
      {"sequence": "MKLSQQSQAIIESAIQKAINKYTCGCEQTIVTDIHIQPNQNSGELFIYDDEDEELSSVTIDEWTAYEGDDFCEDAERIFRTVLCRMKENGSFDKLTILKPYSFVLVDEDKETISELLLVDDDTLLVNDELLKGLDKELDDFLKDLLEKLEHHHHHH", "soluble on expression in E. coli": "soluble"},
      {"sequence": "MKLSQVVVSAVAFTGLVSAANSSNSSSSKNAAQPIAGLNNGKVAGAAGVALAGALAFLI", "soluble on expression in E. coli": "soluble"},
      {"sequence": "MKLSVLDQSPIAYGSNAKEALRQTTELAKVTEALGYHRFWVSEHHDASTLAGSSPEVLIAHLAAHTKKIRLGSGGVMLPHYSAYKVAENFKLLEALHPGRIDVGLGRAPGGMPIAKMALQEGKEQNIHKYPLQVKDVIGYLQDDLPTDHRFHGLKATPLIDTVPDVWLLGSSGGSANVAAENGTGFAFAHFINGEGGVQAVESYRETFQPSALFDRPQTSVAIFVICADTDEQADQIASSLDLSLIMLENGQLSKGTPSIESALSYPYSPFERARIRENRKRMIVGSPKAVRQQLVELARAYETEEVIVVTITHRFEDRIRSYELLGEEWNVN", "soluble on expression in E. coli": "not soluble"},
      {"sequence": "MKLTIIRLQHFSDQDRIDLGKIWPSQDLSTLTLDENHRLYAAHFNERLLGAVRVTLRGVEGELSDLCVREVTRRRGVGQYLVEETLRDNPAINSWRVADHGVEDRGVMAAFMQALGFSAQQ", "soluble on expression in E. coli": "not soluble"},
      {"sequence": "MKLTWIKCMSKTERISDIDEPRLFEENGVEAHIAAFVMPLLKPLGFRLVRVKLLGLNGLTLQIMVERPDGSMTVEDCETVSRTVSPLLDVQNVIERKYHLEISSPGIDRPLVRKSDFFHWQGHIAKIETKIILEGRRKFRGTLTNITQDGFTLNTDKAAYGESMYISIPFDDIIDAHLVLTDELIRDALKKNKDLSQQFISEDNQKLSKQERNYKN", "soluble on expression in E. coli": "not soluble"},
      {"sequence": "MKLYYTPGSCSLSPHIVLRETGLDFSIERIDLRTKKTESGKDFLAINPKGQVPVLQLDNGDILTEGVAIVQYLADLKPDRNLIAPPKALERYHQIEWLNFLASEVHKGYSPLFSSDTPESYLPVVKNKLKSKFVYINDVLSKQKCVCGDHFTVADAYLFTLSQWAPHVALDLTDLSHLQDYLARIAQRPNVHSALVTEGLIKE", "soluble on expression in E. coli": "soluble"},
      {"sequence": "MKMDRQAQFRAREALIFEVAEQLLLENGEAGMTLDALAAELDLAKGTLYKHFQSKDELYMLLIVRNERMLLEMIQDKQKSFPEHLAFFMLHHLHHPERTVMFHQIEERLSTTGQGIYDLFQELYQVRKQRLRIIINMTEIYLQEIQSTMTVRDYLAAIWSLTHGAAAILNSSFYQRYLGSRDTLRIAYIDQALAIPKHMHEQYV", "soluble on expression in E. coli": "not soluble"},
      {"sequence": "MKNDTAALAADIVDFWKKAGPDKWFDKDAAFDNHFHDRFRDAHFAAARRELDGWLEGAESSLALMLLLDQFPRNCFRGTAHMYATDPLARFFADEAIRRGHDQAVSEDLRVFFYLPFSHAEDIAAQQRACDLNQPLGGLYLHHAEEHRDIVERFGRFPHRNGILLRETTPEERQYLEEGGFSG", "soluble on expression in E. coli": "soluble"},
      {"sequence": "MKNETLHTQEDIIKMLDSLLRPAEPFWNEFYANREKDVPFFENVPDENLVSYIQKKRVSKGKVLELGCGPGRNAIYLANEGFDVTAVDVSIEGINWAKERALAKGVEIEFICDSIFNLEVQNEFDFVYDSGCLHHIPPHRRVNYVDLIKNALKSGGYFGLTCFAAGDLDERNGSEITDWDVYRGWSLQGGLAYSEEKLREIFKGFEVIEIRKMEQIEQPNTMFGESFLWTALFKKNLEHHHHHH", "soluble on expression in E. coli": "soluble"},
      {"sequence": "MKPAKVSLLRRLLHSLKHVDCNIAKRFPSTIKIVKLLMIFMVFTPISSIYAEDVYQNFEELKNNEDPSDYGVVTKETGSPVLVLAIHGGGIEGGTSEVARELSKEYSMYLFEGLKSAGNSVLHITSTHFDEPRALKMTGNHEYVISLHGYAEEDQQIEVGGTDRVRAADLVEKLQHAGFPAVLLNMDHPHAGVSPNNIANKSKTGLSIQIEMSTGFRKSLFGIFSLKSRAVTQNERFYEFTEVMFRFLKNSYLEHHHHHH", "soluble on expression in E. coli": "not soluble"},
      {"sequence": "MKPEKRHATESMTMEALLDLLPKDAATDPTGRRLAELVTRIATKRVPVSSFSRIWNLGSLQARVTIGYVAYWLRSRFADSDEKQRLRNEAHLAAALRLFGTMGYLRGAVMKIGQLLANLPEVVPEEFAEVLSALHFEAPPMHFSLVRELFLDEFGREPEELFASFDRQAFAAASLGQVHRARLKSGEEVAVKIQYPGIARTIKADLRNLRLLLQPLCLTNDWQNTLDKLADIEQMLLMETDYEQEARFCREARLLFTTEDRVVVPRVFDDYSTKRVLTTEFLTGCHLDQFLAGNPSQAERDHFTTLLTVATMRIYYRLHWFCADPHPGNFIFMLDGRLGLIDFGCTRAMNGEEWRLICELEQAHQEEDAEQFDRVIARATLYDSPEAMGKEQLAVVRRNVLWNMEPWLKEGLFDFGDREFFMRGIDGLMELTRKRYTRGSPLYLWSTRFVLGGRAVCYQMRGRCEFQEIFRQESAWVCPEPPILEHHHHHH", "soluble on expression in E. coli": "not soluble"},
      {"sequence": "MKPLKEYLLIPTQMRVFETQTQAIETSLSVNAQTSESSEAFTVKKDPHEIKVTGKKSGESELVYDLAGFPIKKTKVHVLPDLKVIPGGQSIGVKLHSVGVLVGFHQINTSEGKKSPGETAGIEAGDIIIEMNGQKIEKMNDVAPFIQKAGKTGESLDLLIKRDKQKIKTKLIPEKDEGEGKYRIGLYIRDSAAGIGTMTFYEPKTKKYGALGHVISDMDTKKPIVVENGEIVKSTVTSIEKGTGGNPGEKLARFSSERKTIGDINRNSPFGIFGTLHQPIQNNISDQALPVAFSTEVKKGPAEILTVIDDDKVEKFDIEIVSTTPQKFPATKGMVLKITDPRLLKETGGIVQGMSGSPIIQNGKVIGAVTHVFVNDPTSGYGVHIEWMLSEAGIDIYGKEKASLEHHHHHH", "soluble on expression in E. coli": "not soluble"},
      {"sequence": "MKPLLTAMFGATLATASTLASAEVAVIMNAGASAAPSQAEVANIFLGKDTSLKGLDQKGWNPTKERFYSALTNKNESQLKSYWSGLVFTGKGQPLQSVDDDAAVIAKVGSEANAIGYIDTSAVNDKVKVLFTLP", "soluble on expression in E. coli": "not soluble"},
      {"sequence": "MKQLMIEASTPLCQLQDAGRFGVRHLGVTQGGALDWVAMHWANWLLGNPLGAPVVEVALGGFCVVAEQDCVLALAGADLDACVDDQPLAPWRSFALAKGQRLTLKQPKVGVRAYLAAPGGFLGEDVLGSCATVVREALGGIDGQGAALAKHQALAFTGSNAPLREVPQALCPQFAQKPVLDLVMGAQIGEFSGTSLFEAFNREWTLDSRADRMGIRLLGPQLVYQGAPMISEGIPLGAVQVPPDGQPIVLLNDRQTIGGYPRLGALTPLALAQLAQCMPGTVVRFRAVVQDEAWREQQLYLGRWS", "soluble on expression in E. coli": "not soluble"},
      {"sequence": "MKQLNFKKIFLNLLWPLLPFTAQAQENNTLYSILSKDNILVSSPSVQNQEEDIVTQMPNRHHKYDKRVHRYRRAWEALIPTHTKLQYAGGMGLLSWGIGWDYGKRGQWETDLLLGFIPRYSSKHFKMTMTLKQNYIPWSIWLGKDFSLEPLTTGIYFNTVFSDDFWTSEPERYPRGYYGFSTRIRTHIFLGQRVRFDVPEKYRKFSKSITAFYEISTCDLYVVSAFNNSYLKPDDYLRLSFGLKFQIF", "soluble on expression in E. coli": "not soluble"}
    ]}
  ]
}
